Measurements reported in patent US20240287138A1, “CYCLIC PEPTIDES FOR INHIBITING TNF RECEPTOR 1 ACTIVITY” (Merck Sharp & Dohme LLC, priority 2023, published 2024).
Numbered stars: 1 amine (or outer) side, 2 acyl side, 3 side chain; on linkers, the order of the positions; unused ones are H or OH. Bridge positions count the residues as written; N and C are the ends. Square brackets hold non-standard residues; d marks the D form. Primed or numbered codes have the meaning given here. bhcLeu = (1R,3S)-3-aminocyclopentane-1-carboxylic acid, O=C([C@@H]1CC[C@H](N[*:1])C1)[*:2]; FX1 = N5-(Pyridin-3-yl)-L-glutamine, O=C(CC[C@H](N[*:1])C(=O)[*:2])Nc1cccnc1; Ala(2-carboxypyrimidin-5-yl) = N[C@@H](Cc1cnc(C(=O)O)nc1)C(=O)O; Trp(βS-Me,7-OMe) = COc1cccc2c([C@H](C)[C@H](N)C(=O)O)c[nH]c12; NEtdA = N-ethyl-D-alanine, CCN([C@H](C)C(=O)[*:2])[*:1]; Trp(βS-Me) = C[C@@H](c1c[nH]c2ccccc12)[C@H](N)C(=O)O; Trp(7-Cl) = N[C@@H](Cc1c[nH]c2c(Cl)cccc12)C(=O)O; Phe(4-CONH2) = NC(=O)c1ccc(C[C@H](N)C(=O)O)cc1; Phe(4-COOH) = N[C@@H](Cc1ccc(C(=O)O)cc1)C(=O)O; Trp(7-aza) = N[C@@H](Cc1c[nH]c2ncccc12)C(=O)O; Phe(4-CH2NH2) = NCc1ccc(C[C@H](N)C(=O)O)cc1; Pip(5R-OH) = O=C(O)[C@@H]1CC[C@@H](O)CN1; αMeW = C[C@](N)(Cc1c[nH]c2ccccc12)C(=O)O; Ala(2-furyl) = N[C@@H](Cc1ccco1)C(=O)O; 2Nal = N[C@@H](Cc1ccc2ccccc2c1)C(=O)O; Val(3-OH) = CC(C)(O)[C@H](N)C(=O)O; Pip(4-aza) = O=C(O)[C@@H]1CNCCN1; 3Pal = N[C@@H](Cc1cccnc1)C(=O)O; 4Pal = N[C@@H](Cc1ccncc1)C(=O)O; NMeE = CN[C@@H](CCC(=O)O)C(=O)O; dHyp = O=C(O)[C@H]1C[C@H](O)CN1; NMeS = CN[C@@H](CO)C(=O)O; αMeS = C[C@](N)(CO)C(=O)O; Nle = CCCC[C@H](N)C(=O)O; Pip2c = not defined here; Ahp′ = not defined here; Dap = NC[C@H](N)C(=O)O; Sar = CNCC(=O)O

Molecular target: C'-terminally 6His-tagged human soluble TNFR1 (sTNFR1, residues 1-211) (human)
Assay: TR-FRET displacement of biotinylated peptide SEQ ID NO. 1 from sTNFR1-6His

Chain of C'-terminally 6His-tagged human soluble TNFR1 (sTNFR1, residues 1-211) (human) (chain, as listed by the source): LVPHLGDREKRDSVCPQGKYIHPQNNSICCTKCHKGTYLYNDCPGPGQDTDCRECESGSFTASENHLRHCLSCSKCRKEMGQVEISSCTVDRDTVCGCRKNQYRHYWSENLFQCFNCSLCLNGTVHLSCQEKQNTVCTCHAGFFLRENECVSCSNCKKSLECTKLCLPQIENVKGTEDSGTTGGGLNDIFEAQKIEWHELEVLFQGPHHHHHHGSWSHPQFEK

Binder	Kd^app	IC50
cyclo([bhcLeu][Nle][4Pal][Pip(4-aza)]W[NMeE]N[4Pal][Trp(7-Cl)][αMeS][Phe(4-COOH)]H[Sar][Trp(βS-Me,7-OMe)]) (SMILES CCCC[C@@H]1NC(=O)[C@@H]2CC[C@@H](C2)NC(=O)[C@H]([C@@H](C)c2c[nH]c3c(OC)cccc23)NC(=O)CN(C)C(=O)[C@H](Cc2c[nH]cn2)NC(=O)[C@H](Cc2ccc(C(=O)O)cc2)NC(=O)[C@](C)(CO)NC(=O)[C@H](Cc2c[nH]c3c(Cl)cccc23)NC(=O)[C@H](Cc2ccncc2)NC(=O)[C@H](CC(N)=O)NC(=O)[C@H](CCC(=O)O)N(C)C(=O)[C@H](Cc2c[nH]c3ccccc23)NC(=O)[C@@H]2CNCCN2C(=O)[C@H](Cc2ccncc2)NC1=O) [SEQ ID NO. 178]	0.29 nM	
cyclo([bhcLeu][FX1][4Pal][NMeS]W[NMeE]N[4Pal][Trp(7-Cl)][αMeS][Phe(4-COOH)]Y[Sar][Trp(βS-Me,7-OMe)]) (SMILES COc1cccc2c([C@H](C)[C@@H]3NC(=O)CN(C)C(=O)[C@H](Cc4ccc(O)cc4)NC(=O)[C@H](Cc4ccc(C(=O)O)cc4)NC(=O)[C@](C)(CO)NC(=O)[C@H](Cc4c[nH]c5c(Cl)cccc45)NC(=O)[C@H](Cc4ccncc4)NC(=O)[C@H](CC(N)=O)NC(=O)[C@H](CCC(=O)O)N(C)C(=O)[C@H](Cc4c[nH]c5ccccc45)NC(=O)[C@H](CO)N(C)C(=O)[C@H](Cc4ccncc4)NC(=O)[C@H](CCC(=O)Nc4cccnc4)NC(=O)[C@@H]4CC[C@@H](C4)NC3=O)c[nH]c12) [SEQ ID NO. 166]	0.44 nM	0.5 nM
{CH2CO}-[Nle][4Pal][Pip2c][Trp(7-aza)][NMeE]N[4Pal][Trp(7-Cl)][αMeS][Phe(4-COOH)][TyrOCF3][Sar][Trp(βS-Me,7-OMe)]C-NH2 (thioether N-14; reading uncertain; also: printed as cyclo(ClAc-Nle-4Pal-Pip2c-Trp7az-NMeE-N-4Pal-Trp7Cl-aMeS-Phe4COOH-TyrOCF3-Sar-SbMeW7OMe-C)-NH2) [SEQ ID NO. 158]		1.79 nM
{CH2CO}-[Nle][4Pal][Pip(5R-OH)]W[NEtdA]N[4Pal][Trp(7-Cl)][αMeS][Phe(4-CONH2)]Y[Sar][Trp(βS-Me,7-OMe)]C-NH2 (thioether N-14; SMILES CCCC[C@@H]1NC(=O)CSC[C@@H](C(N)=O)NC(=O)[C@H]([C@@H](C)c2c[nH]c3c(OC)cccc23)NC(=O)CN(C)C(=O)[C@H](Cc2ccc(O)cc2)NC(=O)[C@H](Cc2ccc(C(N)=O)cc2)NC(=O)[C@](C)(CO)NC(=O)[C@H](Cc2c[nH]c3c(Cl)cccc23)NC(=O)[C@H](Cc2ccncc2)NC(=O)[C@H](CC(N)=O)NC(=O)[C@@H](C)N(CC)C(=O)[C@H](Cc2c[nH]c3ccccc23)NC(=O)[C@@H]2CC[C@@H](O)CN2C(=O)[C@H](Cc2ccncc2)NC1=O) [SEQ ID NO. 186]	0.42 nM	0.5 nM

The remaining lines, values ahead:

Kd^app	IC50	Binder
	13 nM	{CH2CO}-[Ahp′][4Pal]S[Trp(βS-Me)][dP]N[Phe(4-COOH)][2Nal][αMeS][Phe(4-COOH)]H[Sar][αMeW]C-NH2 (thioether N-14; reading uncertain; also: printed as cyclo(ClAc-Ahp-4Pal-S-SbMeW-dP-N-Phe4COOH-2Nal-aMeS-Phe4COOH-H-Sar-aMeW-C)-NH2) [SEQ ID NO. 237]
	1.16 nM	{CH2CO}-[Ahp′]Y[AlaPiperaz][Trp(βS-Me)][dP]N[4Pal][Trp(7-Cl)][αMeS][Phe(4-COOH)][3Pal][Sar][αMeW]C-NH2 (thioether N-14; reading uncertain; also: printed as cyclo(ClAc-Ahp-Y-AlaPiperaz-SbMeW-dP-N-4Pal-Trp7Cl-aMeS-Phe4COOH-3Pal-Sar-aMeW-C)-NH2) [SEQ ID NO. 226]
	0.95 nM	{CH2CO}-[LysN3][4Pal][Dap][Trp(βS-Me)][dP]N[4Pal][Trp(7-Cl)][αMeS][Phe(4-COOH)][Phe(4-CH2NH2)][Sar][αMeW]C-NH2 (thioether N-14) [SEQ ID NO. 245]
0.18 nM		cyclo([bhcLeu][Nle][4Pal][Pip(5R-OH)]W[dHyp]N[Phe(4-COOH)][Trp(7-Cl)][αMeS][Phe(4-CONH2)][Ala(2-carboxypyrimidin-5-yl)][Sar][Trp(βS-Me,7-OMe)]) (SMILES CCCC[C@@H]1NC(=O)[C@@H]2CC[C@@H](C2)NC(=O)[C@H]([C@@H](C)c2c[nH]c3c(OC)cccc23)NC(=O)CN(C)C(=O)[C@H](Cc2cnc(C(=O)O)nc2)NC(=O)[C@H](Cc2ccc(C(N)=O)cc2)NC(=O)[C@](C)(CO)NC(=O)[C@H](Cc2c[nH]c3c(Cl)cccc23)NC(=O)[C@H](Cc2ccc(C(=O)O)cc2)NC(=O)[C@H](CC(N)=O)NC(=O)[C@H]2C[C@H](O)CN2C(=O)[C@H](Cc2c[nH]c3ccccc23)NC(=O)[C@@H]2CC[C@@H](O)CN2C(=O)[C@H](Cc2ccncc2)NC1=O) [SEQ ID NO. 191]
	0.9 nM	{CH2CO}-[Nle][4Pal][Pip(4-aza)]W[dP]N[Ala(2-furyl)][Trp(7-Cl)][αMeS][Phe(4-COOH)]Y[Sar][Trp(βS-Me,7-OMe)]C-NH2 (thioether N-14; SMILES CCCC[C@@H]1NC(=O)CSC[C@@H](C(N)=O)NC(=O)[C@H]([C@@H](C)c2c[nH]c3c(OC)cccc23)NC(=O)CN(C)C(=O)[C@H](Cc2ccc(O)cc2)NC(=O)[C@H](Cc2ccc(C(=O)O)cc2)NC(=O)[C@](C)(CO)NC(=O)[C@H](Cc2c[nH]c3c(Cl)cccc23)NC(=O)[C@H](Cc2ccco2)NC(=O)[C@H](CC(N)=O)NC(=O)[C@H]2CCCN2C(=O)[C@H](Cc2c[nH]c3ccccc23)NC(=O)[C@@H]2CNCCN2C(=O)[C@H](Cc2ccncc2)NC1=O) [SEQ ID NO. 236]
0.73 nM	1 nM	{CH2CO}-[Nle]H[Val(3-OH)][Trp(7-aza)][NMeE]N[4Pal][Trp(7-Cl)][αMeS][Phe(4-COOH)]Y[Sar][Trp(βS-Me,7-OMe)]C-NH2 (thioether N-14; SMILES CCCC[C@@H]1NC(=O)CSC[C@@H](C(N)=O)NC(=O)[C@H]([C@@H](C)c2c[nH]c3c(OC)cccc23)NC(=O)CN(C)C(=O)[C@H](Cc2ccc(O)cc2)NC(=O)[C@H](Cc2ccc(C(=O)O)cc2)NC(=O)[C@](C)(CO)NC(=O)[C@H](Cc2c[nH]c3c(Cl)cccc23)NC(=O)[C@H](Cc2ccncc2)NC(=O)[C@H](CC(N)=O)NC(=O)[C@H](CCC(=O)O)N(C)C(=O)[C@H](Cc2c[nH]c3ncccc23)NC(=O)[C@H](C(C)(C)O)NC(=O)[C@H](Cc2c[nH]cn2)NC1=O) [SEQ ID NO. 217]
